A value given as a limit tells only on which side of the number the result lay.

Assay [1] addresses T1, monkey PD-1 with mFc (monkey PD-1-mFc) (monkey).
T1 construct: also called monkey PD-1 dimer; MfPD-1 dimer
T1 chain: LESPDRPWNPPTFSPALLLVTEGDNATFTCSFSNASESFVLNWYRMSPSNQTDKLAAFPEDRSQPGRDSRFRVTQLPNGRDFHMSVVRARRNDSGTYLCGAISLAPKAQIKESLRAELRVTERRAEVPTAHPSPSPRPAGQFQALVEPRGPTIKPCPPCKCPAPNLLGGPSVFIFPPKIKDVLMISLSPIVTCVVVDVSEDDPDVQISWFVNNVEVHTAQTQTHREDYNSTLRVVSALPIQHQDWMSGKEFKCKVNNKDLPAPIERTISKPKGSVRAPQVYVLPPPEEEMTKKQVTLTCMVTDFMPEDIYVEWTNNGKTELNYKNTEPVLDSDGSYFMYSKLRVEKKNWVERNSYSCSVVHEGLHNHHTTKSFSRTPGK
The experiment in a line: SPR 37C, mAb captured.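 Note: Real-time binding of antigen to purified anti-PD-1 antibodies, measured by surface plasmon resonance on a Biacore 4000 or T200 instrument.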

For assay [2], the target named is T2, recombinant human PD-1 dimer expressed with a C-terminal mouse IgG2a Fc tag (hPD-1-mFc) (human).
T2 construct: also called human PD-1-mFc
Briefly: competition ELISA, 1.5 nM hPD-1-mFc, coated hPD-L1-hFc; * below assay bottom. For orientation: ELISA stands for enzyme-linked immunosorbent assay.

For assay [3], the target named is T1, monkey PD-1 with mFc (monkey PD-1-mFc). The experiment in a line: SPR 25C, mAb captured.
The target of assay [4] is T3, recombinant human PD-1 expressed with a C-terminal myc-myc-hexahistidine tag (human).
T3 construct: monomeric reagent; also called hPD-1-MMH; human PD-1-MMH
The experiment in a line: SPR Biacore, mAb captured, 37 C.

The target in assay [5] is T4, human PD-1 dimer (human PD-1-mFc or human PD-1-hFc) (human, Fc-mediated homodimer; one copy of the chain is given.).
T4 construct: also called hPD-1-mFc; hPD1-hFc; not shown: The C-terminal Fc tag
The experiment in a line: SPR Biacore, mAb captured, 37 C.

T4 sequence (chain, as listed by the source limits assumed): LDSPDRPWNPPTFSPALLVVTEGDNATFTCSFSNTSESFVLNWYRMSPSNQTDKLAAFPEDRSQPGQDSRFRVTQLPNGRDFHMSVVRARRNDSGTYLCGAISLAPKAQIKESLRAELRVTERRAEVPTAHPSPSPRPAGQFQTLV

B1: H4xH9034P (antibody, V domains shown)
VH: EVQLVESGGGVVRPGGSLRLSCTASGFTFDDYGMSWVRQAPGKGLEWISGIGWTGGRSSYADSVRGRFTISRDNAKNSLYLQMNSLGAEDTALYYCARDRQWLVQWYFDYWGQGTLVTVSS
VL: not shown
One may read the t½ as the time in which the quantity being followed falls by half. For orientation: IC50 means the concentration that gives 50% inhibition. B1: in assay [1], the “100 nM Monkey PD-1-mFc Bound” value came to 81 RU and the t½ came to 0.25 h. In addition, in assay [2], the concentration for half-maximal inhibition (IC50) was less than 750 pM. Also, in assay [3], the “100 nM Monkey PD-1-mFc Bound” value was determined as 95 RU and the t½ came out at 1.17 h.

B2: H4xH9120P2 (antibody, V domains shown)
VH: QVQLVQSGAEVKRPGASVKVSCKASGYTFTSFYMYWVRQAPGQGLEWMGIINPSDGSTSNAQKFQGRVTMTRDTSTSTVYMELSSLRSEDTAVYYCARRVAGDIFDIWGQGTMVTVSS
VL: not shown
notes: human IgG4 Fc with 2 or more amino acid changes as in US20100331527 (H4xH prefix)
The kon is the rate constant with which the complex forms. Turning to B2, in assay [4], the on-rate constant (kon) turned out to be 68600 M⁻¹ s⁻¹.

B3: H2aM7794N (antibody, V domains shown)
VH: QLQLQESGPDLVKPSDTLSLTCTVSDDSISSTTYYWAWIRQPPGKGLEWIGSMSYNGNNYYNPSLKSRVAISAGTSQKQFSLKLTSVTAADTAVYHCARHLGYNGNWYPFDFWGQGILVTVSS
VL: not shown
notes: human variable regions with mouse IgG2a Fc (H2aM prefix); also called H2M7794N
Regarding B3, the t½ in assay [5] was 1.08 h.
